“And” between values parts separate entries of the source, which are not always exact repeats. Identical values can stand only once.

For 3 molecules, Kd results are on record in US20180118806A1 (MIT, published 2018).

Assay [1] addresses T1, Rantes (CCL5) (UniProt P13501 24-91).
T1 construct: In the yeast 2-hybrid screen the ligand construct is not described
T1 sequence (looked up): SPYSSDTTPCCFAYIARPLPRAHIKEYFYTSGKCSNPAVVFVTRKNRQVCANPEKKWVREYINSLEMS
The experiment in a line: MST (FIG. 5). The method, then: (§1) Each run of assay systematically measures 16 capillaries with identical concentration of a non-full length CCR5^QTY variant, but different concentrations of Rantes (Prospecbio http://www.prospecbio.com/Rantes/) with 2 duplicate measurements (Technical repeat 1 and 2).
(§2) Briefly, serial dilution of the target molecule Rantes was prepared in buffer to match the final buffer conditions in the reaction mix. The highest concentration of target was 6.0 μM, and the lowest 184.0 pM. About 5 μl of each dilution step were mixed with 5 μl of the fluorescent molecule—a partial water-soluble […] variant of CCR5 (e.g., CCR5-SZ218a). The final reaction mixture, which was filled in capillaries, contained a respective amount of target molecule (max. conc. 3.0 μM, min conc. 92.0 pM) and constant 5 nM fluorescent molecule.
(§3) The samples were analyzed on a Monolith NT.115 Pico at 25° C., with 12% LED power and 80% Laser power. No sticking of the fluorescent interaction partner to the capillary walls was indicated in the capillary scan.

Assay [2] addresses T1, Rantes (CCL5). The experiment in a line: fluorescent MST (FIG. 5). The method, then:
as §1, §2, §3

The target in assay [3] is T1, Rantes (CCL5). Kind of assay: MST (MicroScale Thermophoresis), labelled CCR5QTY variant constant, Rantes titrated (axis 0.01-10000 nM); left panel, fits of Tech. 1 and Tech. 2. The protocol: as §1, §2, §3
In general terms: In MST a laser heats a spot of the sample, and binding alters the fluorescence response.

The target of assay [4] is T1, Rantes (CCL5). Kind of assay: MST (MicroScale Thermophoresis), labelled CCR5QTY variant constant, Rantes titrated (axis 0.01-10000 nM); right panel, fits of Tech. 1 and Tech. 2. The protocol:
as §1, §2, §3

Assay [5] has as its target T1, Rantes (CCL5). Kind of assay: MST, run 2, technical repeat; run 2, first technical repeat. The protocol:
as §1, §2, §3

Assay [6] addresses T1, Rantes (CCL5). Kind of assay: MST, run 3, technical repeat; run 3, first technical repeat. The method, then:
as §1, §2, §3

For assay [7], the target named is T1, Rantes (CCL5). The experiment in a line: MST, run 2, technical repeat; run 2, second technical repeat. The method, then:
as §1, §2, §3

Assay [8] has as its target T1, Rantes (CCL5). The experiment in a line: MST, run 3, technical repeat; run 3, second technical repeat. The protocol:
as §1, §2, §3

The target of assay [9] is T1, Rantes (CCL5). Kind of assay: MST, run 1, technical repeat; dye-labelled variant at 5 nM, Rantes titrated (FIG. 7); run 1, first technical repeat. The method, then: as §1, §2, §3
Assay [10] deals with T1, Rantes (CCL5). Kind of assay: MST, run 1, technical repeat; dye-labelled variant at 5 nM, Rantes titrated (FIG. 7); run 1, second technical repeat. The method, then: as §1, §2, §3
The target of assay [11] is T1, Rantes (CCL5). Kind of assay: MST, run 3, LED power 15%, technical repeat. The method, then: as §1, §2
The target in assay [12] is T1, Rantes (CCL5). The experiment in a line: MST, run 1, rounded value of the two technical repeats. The method, then: as §1, §2, §3
Assay [13] concerns the target T1, Rantes (CCL5). Kind of assay: MST, run 2, rounded value of the two technical repeats (FIG. 6). The method, then:
as §1, §2, §3

Assay [14] deals with T1, Rantes (CCL5). Kind of assay: MST, run 1, technical repeat; dye-labelled variant at 5 nM, Rantes titrated. The protocol: as §1, §2, §3
The target of assay [15] is T1, Rantes (CCL5). Kind of assay: MST, run 2, technical repeat; dye-labelled variant at 5 nM, Rantes titrated. The method, then: as §1, §2, §3

B1: SZ352a = CCR5QTY(352a) (receptor)
chain: MDYQVSSPIYDINYYTSEPCQKINVKQIAARQQPPQYSQTFTYGFTGNMQTTQTQINCKRLKSMTDIYLQNQAISDQYYQQTTPYWAHYAAAQWDFGNTMCQQQTGQYFTGYYSGTYYTTQQTTDRYLAVVHAVFALKARTTTYGTTTSTTTWTTATYASQPGTTYTRSQKEGLHYTCSSHFPYSQYQFWKNFQTLKITIQGQVQPQQTMVTCYSGTQKTLLRCRNEKKRHRAVRQTFTTMTTYYQYWAPYNTTQQLNTFQEFFGLNNCSSSNRLDQAMQVTETQGMTHCCTNPTIYAYVGEKFRNYLLVFFQKHIAKRFCKCCSIFQQEAPERASSVYTRSTGEQEISVGL
modifications: labelled with a dye in the MST assay (dye and site not stated for this variant)
notes: Full-length (352 aa) QTY variant of CCR5, used as control in MST; also called CC15-22; full-length (352 aa) CCR5^QTY variant
B1: the Kd with Rantes (CCL5) [1] was 28 to 32 nM; in the assay with Rantes (CCL5) [2] it was ~30 nM; with Rantes (CCL5) [3], ~28 nM; with Rantes (CCL5) [4], ~32 nM.

B2: SZ190b = CCR5QTY(190b) (receptor)
chain: MDYQVSSPIYDINYYTSEPCQKINVKQIAARLQPPQYSQTFTFGFTGNMQTTQTQINCKRLKSMTDIYLQNQAISDQFFQQTTPYWAPYNTVQQQNTFQEFFGLNNCSSSNRLDQAMQVTETQGMTHCCTNPTIYAFVGEKFRNYLLVFFQKHIAKRFCKCCSIFQQEAPERASSVYTRSTGEQEISVGL
modifications: labelled with the dye DY647P1 in the MST assay (site not stated)
notes: Partial QTY variant of CCR5, 190 aa; Dye-labelled in MST; in the yeast 2-hybrid screen the fusion partner is not described; also called 5NA-17: Contig1; CCR5_SZ190b DY647P1
For B2, the Kd turned out to be 27.4 nM with Rantes (CCL5) [5]; 32 nM in the assay with Rantes (CCL5) [6]; 56.5 nM with Rantes (CCL5) [7]; 54.9 nM with Rantes (CCL5) [8]; 46.5 nM with Rantes (CCL5) [9]; 51.8 nM in the assay with Rantes (CCL5) [10]. Further, the figures for the Kd with Rantes (CCL5) [3] and with Rantes (CCL5) [4] were ~46 nM and ~48 nM, respectively.

B3: SZ218a = CCR5QTY(218a) (receptor)
chain: MDYQVSSPIYDINYYTSEPCQKINVKQIAARQQPPQYSQTYTFGFTGNMQTTQTQINCKRLKSMTDIYLQNQAISDQFFQQTTPFWAHYAAAQWDFGNTMCQQQTGQYFTGYYSGTYYTTQQLNTFQEFFGLNNCSSSNRLDQAMQTTETQGMTHCCINPTTYAYVGEKFRNYLLVFFQKHIAKRFCKCCSIFQQEAPERASSVYTRSTGEQEISVGL
modifications: labelled with the dye DY647P1 in the MST assay (site not stated)
notes: Dye-labelled in MST; fusion partner in yeast 2-hybrid not described; also called 5NA-43; CCR5_SZ218a DY647P1
On to B3, for which the Kd with Rantes (CCL5) [11] was 86.9 nM and 94.6 nM; in the assay with Rantes (CCL5) [12], ~75 nM; with Rantes (CCL5) [13] it was ~80 nM; with Rantes (CCL5) [14], 74.5 nM and 76.2 nM; with Rantes (CCL5) [15], 80.2 nM and 83.2 nM.

One may read the Kd as the equilibrium constant for the complex coming apart. Low values mean tighter binding, high ones weaker binding.
